This assay concerns the target HLA-A*02:01 (Homo sapiens, UniProt P04439, D140Y/D185E/D98H/E176V/E277Q/G131W/G231S/I119V/I121R/I166T/I218V/L300P/L318F/N151K/N90K/P208A/P217A/Q86G/Q94H/R138H/R169H/T345S). Kind of assay: MHC binding assay (UV-ligand exchange, β2m ELISA, peptide exchange yield). Conditions: MHC class I binding score; binding to HLA-A*02:01 ranged by peptide exchange yield (UV-ligand exchange, β2m ELISA). Put shortly: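 Peptide–HLA-A*02:01 complexes were formed by UV-mediated exchange of a UV-cleavable ligand for the test peptide. Exchange yield was measured by capturing complexes on streptavidin, detecting with HRP anti-β2m antibody (1 h, 37°C) and reading TMB absorbance at 450 nm.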
For “280 (VLPDPEVLEAV; listed as Homo sapiens) [compound 280]”, the Peptide exchange entry is “″+++″ (≧50% = +++)”.

Regarding “281 (ILRESTEEL; listed as Homo sapiens) [compound 281]”, the Peptide exchange entry is given as “″+++″ (≧50% = +++)”.

With “282 (LLADVVPTT; listed as Homo sapiens) [compound 282]”, the Peptide exchange result is recorded as “″+++″ (≧50% = +++)”.

For “284 (ILLSQTTGV; listed as Homo sapiens) [compound 284]”, the Peptide exchange result is recorded as “″+++″ (≧50% = +++)”.

“285 (QLLHVGVTV; listed as Homo sapiens) [compound 285]”: the Peptide exchange entry is on record as “″+++″ (≧50% = +++)”.

For “286 (YLFPGIPEL; listed as Homo sapiens) [compound 286]”, the Peptide exchange entry was “″+++″ (≧50% = +++)”.

As to “287 (FLNEFFLNV; listed as Homo sapiens) [compound 287]”, the Peptide exchange entry was “″+++″ (≧50% = +++)”.

In the case of “288 (NLINEINGV; listed as Homo sapiens) [compound 288]”, the Peptide exchange entry is on record as “″+++″ (≧50% = +++)”.

For the substance “289 (VLLEIEDLQV; listed as Homo sapiens) [compound 289]”, the Peptide exchange entry is reported as “″++++″ (≧75% = ++++)”.

On to “295 (VLDRESPNV; listed as Homo sapiens) [compound 295]”, for which the Peptide exchange entry is “″+++″ (≧50% = +++)”.

Turning to “296 (FMEGAIIYV; listed as Homo sapiens) [compound 296]”, the Peptide exchange entry is recorded as “″+++″ (≧50% = +++)”.

“297 (VLADIELAQA; listed as Homo sapiens) [compound 297]”: the Peptide exchange result is reported as “″+++″ (≧50% = +++)”.

With “298 (VMITKLVEV; listed as Homo sapiens) [compound 298]”, the Peptide exchange result was “″+++″ (≧50% = +++)”.

For “299 (YLLETSGNL; listed as Homo sapiens) [compound 299]”, the Peptide exchange result was “″+++″ (≧50% = +++)”.

As to “300 (ALLGQTFSL; listed as Homo sapiens) [compound 300]”, the Peptide exchange result is reported as “″+++″ (≧50% = +++)”.

For “301 (FLVEDLVDSL; listed as Homo sapiens) [compound 301]”, the Peptide exchange entry is recorded as “″+++″ (≧50% = +++)”.

As to “302 (ALLQEGEVYSA; listed as Homo sapiens) [compound 302]”, the Peptide exchange result was “″+++″ (≧50% = +++)”.

Take “303 (AILPQLFMV; listed as Homo sapiens) [compound 303]”: the Peptide exchange entry is on record as “″++++″ (≧75% = ++++)”.

Consider “304 (MTLGQIYYL; listed as Homo sapiens) [compound 304]”, for which the Peptide exchange entry is reported as “″+++″ (≧50% = +++)”.

Turning to “305 (SIANFSEFYV; listed as Homo sapiens) [compound 305]”, the Peptide exchange result was “″++++″ (≧75% = ++++)”.

Take “306 (ALVNVQIPL; listed as Homo sapiens) [compound 306]”: the Peptide exchange result was “″+++″ (≧50% = +++)”.

Regarding “307 (ALPVSLPQI; listed as Homo sapiens) [compound 307]”, the Peptide exchange result is given as “″+++″ (≧50% = +++)”.

With “308 (SQYSGQLHEV; listed as Homo sapiens) [compound 308]”, the Peptide exchange result was “″+++″ (≧50% = +++)”.

In the case of “309 (GLFDGVPTTA; listed as Homo sapiens) [compound 309]”, the Peptide exchange result is “″+++″ (≧50% = +++)”.

For “310 (FLVDTPLARA; listed as Homo sapiens) [compound 310]”, the Peptide exchange result is “″++++″ (≧75% = ++++)”.

As to “311 (RLYTGMHTV; listed as Homo sapiens) [compound 311]”, the Peptide exchange result is reported as “″+++″ (≧50% = +++)”.

As for “312 (IISDLTIAL; listed as Homo sapiens) [compound 312]”, the Peptide exchange entry is reported as “″+++″ (≧50% = +++)”.

Regarding “313 (VLFDDELLMV; listed as Homo sapiens) [compound 313]”, the Peptide exchange entry is reported as “″+++″ (≧50% = +++)”.

As to “314 (ALIAEGIALV; listed as Homo sapiens) [compound 314]”, the Peptide exchange entry is reported as “″+++″ (≧50% = +++)”.

In the case of “315 (YLQDVVEQA; listed as Homo sapiens) [compound 315]”, the Peptide exchange result was “″+++″ (≧50% = +++)”.

In the case of “316 (ILLERLWYV; listed as Homo sapiens) [compound 316]”, the Peptide exchange result was “″+++″ (≧50% = +++)”.

Consider “317 (SLAALVVHV; listed as Homo sapiens) [compound 317]”, for which the Peptide exchange entry was “″+++″ (≧50% = +++)”.

For the substance “318 (GLINTGVLSV; listed as Homo sapiens) [compound 318]”, the Peptide exchange entry is reported as “″++″ (≧20% = ++)”.

Consider “320 (KMFEFVEPLL; listed as Homo sapiens) [compound 320]”, for which the Peptide exchange entry is reported as “″++++″ (≧75% = ++++)”.

“321 (GLFEDVTQPGILL; listed as Homo sapiens) [compound 321]”: the Peptide exchange result is recorded as “″++++″ (≧75% = ++++)”.

“322 (TLMTSLPAL; listed as Homo sapiens) [compound 322]”: the Peptide exchange result is given as “″+++″ (≧50% = +++)”.

On to “324 (FLYDEIEAEV; listed as Homo sapiens) [compound 324]”, for which the Peptide exchange entry was “″+++″ (≧50% = +++)”.

For the substance “325 (FIMPATVADATAV; listed as Homo sapiens) [compound 325]”, the Peptide exchange entry was “″+++″ (≧50% = +++)”.

Regarding “326 (FLPEALDFV; listed as Homo sapiens) [compound 326]”, the Peptide exchange entry is reported as “″+++″ (≧50% = +++)”.

Turning to “327 (GLAPFTEGISFV; listed as Homo sapiens) [compound 327]”, the Peptide exchange entry is on record as “″+++″ (≧50% = +++)”.

“328 (ALNDQVFEI; listed as Homo sapiens) [compound 328]”: the Peptide exchange entry is recorded as “″+++″ (≧50% = +++)”.

Consider “329 (FLVTLNNVEV; listed as Homo sapiens) [compound 329]”, for which the Peptide exchange entry was “″++++″ (≧75% = ++++)”.

As to “330 (QLALKVEGV; listed as Homo sapiens) [compound 330]”, the Peptide exchange result is given as “″+++″ (≧50% = +++)”.

As for “331 (KVDTVWVNV; listed as Homo sapiens) [compound 331]”, the Peptide exchange entry is “″+++″ (≧50% = +++)”.

Turning to “332 (YLISELEAA; listed as Homo sapiens) [compound 332]”, the Peptide exchange entry is “″+++″ (≧50% = +++)”.

With “333 (FLPDANSSV; listed as Homo sapiens) [compound 333]”, the Peptide exchange entry is given as “″++″ (≧20% = ++)”.

As to “334 (TLTKVLVAL; listed as Homo sapiens) [compound 334]”, the Peptide exchange result is given as “″+++″ (≧50% = +++)”.

Regarding “335 (YSLSSVVTV; listed as Homo sapiens) [compound 335]”, the Peptide exchange result is recorded as “″+++″ (≧50% = +++)”.

For “336 (ILLTAIVQV; listed as Homo sapiens) [compound 336]”, the Peptide exchange result is “″+++″ (≧50% = +++)”.

As to “337 (HLLSELEAAPYL; listed as Homo sapiens) [compound 337]”, the Peptide exchange entry is “″++++″ (≧75% = ++++)”.

As to “339 (GLWEIENNPTVKA; listed as Homo sapiens) [compound 339]”, the Peptide exchange result was “″++++″ (≧75% = ++++)”.

Turning to “340 (ALLSMTFPL; listed as Homo sapiens) [compound 340]”, the Peptide exchange entry is on record as “″++++″ (≧75% = ++++)”.

As for “341 (SQIALNEKLVNL; listed as Homo sapiens) [compound 341]”, the Peptide exchange result was “″+++″ (≧50% = +++)”.

Consider “342 (HIYDKVMTV; listed as Homo sapiens) [compound 342]”, for which the Peptide exchange result is on record as “″+++″ (≧50% = +++)”.

On to “343 (SLLEVNEESTV; listed as Homo sapiens) [compound 343]”, for which the Peptide exchange result is recorded as “″+++″ (≧50% = +++)”.

For the substance “344 (YLQDQHLLLTV; listed as Homo sapiens) [compound 344]”, the Peptide exchange entry was “″+++″ (≧50% = +++)”.

Take “345 (VIWKALIHL; listed as Homo sapiens) [compound 345]”: the Peptide exchange result is given as “″+++″ (≧50% = +++)”.

As for “346 (LLDSKVPSV; listed as Homo sapiens) [compound 346]”, the Peptide exchange entry was “″+++″ (≧50% = +++)”.

With “347 (SLFKHDPAAWEA; listed as Homo sapiens) [compound 347]”, the Peptide exchange entry is recorded as “″++++″ (≧75% = ++++)”.

“348 (ILLDVKTRL; listed as Homo sapiens) [compound 348]”: the Peptide exchange entry was “″++++″ (≧75% = ++++)”.

Regarding “349 (SLTEYLQNV; listed as Homo sapiens) [compound 349]”, the Peptide exchange entry was “″++++″ (≧75% = ++++)”.

For the substance “350 (ALLDVTHSELTV; listed as Homo sapiens) [compound 350]”, the Peptide exchange result is “″+++″ (≧50% = +++)”.

“351 (SLIPNLRNV; listed as Homo sapiens) [compound 351]”: the Peptide exchange entry is recorded as “″+++″ (≧50% = +++)”.

Consider “352 (SLLELLHIYV; listed as Homo sapiens) [compound 352]”, for which the Peptide exchange result is given as “″+++″ (≧50% = +++)”.

For the substance “353 (YLFEMDSSL; listed as Homo sapiens) [compound 353]”, the Peptide exchange result is reported as “″++″ (≧20% = ++)”.

“354 (LILEGVDTV; listed as Homo sapiens) [compound 354]”: the Peptide exchange result is “″++″ (≧20% = ++)”.

For the substance “355 (SIQQSIERLLV; listed as Homo sapiens) [compound 355]”, the Peptide exchange entry is recorded as “″++″ (≧20% = ++)”.

For “356 (KLLGKLPEL; listed as Homo sapiens) [compound 356]”, the Peptide exchange entry is reported as “″+++″ (≧50% = +++)”.

In the case of “357 (SMHDLVLQV; listed as Homo sapiens) [compound 357]”, the Peptide exchange entry is listed as “″+++″ (≧50% = +++)”.

As to “358 (ALDEYTSEL; listed as Homo sapiens) [compound 358]”, the Peptide exchange entry is on record as “″++++″ (≧75% = ++++)”.

The values are drawn from patent US20170037111A1, “Novel peptides and combination of peptides for use in immunotherapy against ovarian cancer and other cancers” (immatics biotechnologies GmbH, priority 2015, published 2017).
